According to patent publication US20190382503A1 (published 2019):

Assays:
human 5T4 on cells [1] = molecular target: T1, human 5T4 on cells (human, UniProt Q13641 32-420); assay: flow cytometry, BxPC-3 cells, streptavidin-PE, normalized MFI of 2 pooled experiments
T1 construct: Human 5T4 on transfected cells (CHO-K1, CT26, B16) or endogenous on human tumour lines; the cell line is named under assay; also called trophoblast glycoprotein; TPBG
T1 sequence: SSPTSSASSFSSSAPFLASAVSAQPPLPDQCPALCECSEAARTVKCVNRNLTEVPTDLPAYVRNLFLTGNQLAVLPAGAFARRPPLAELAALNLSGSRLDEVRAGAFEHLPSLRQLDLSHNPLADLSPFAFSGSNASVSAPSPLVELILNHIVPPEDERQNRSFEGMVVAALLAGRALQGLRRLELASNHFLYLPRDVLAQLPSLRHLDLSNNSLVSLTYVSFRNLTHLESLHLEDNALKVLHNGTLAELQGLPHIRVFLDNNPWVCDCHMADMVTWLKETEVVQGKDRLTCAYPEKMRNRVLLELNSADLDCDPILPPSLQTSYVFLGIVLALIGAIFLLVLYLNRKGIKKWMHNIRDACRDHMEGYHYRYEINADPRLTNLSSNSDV
Method: (§1) FACS staining and analysis of 5T4-expressing cell lines: Prior to the FACS staining, all cell lines were characterized for their 5T4 expression levels using a receptor density kit (Quantum Simply Cellular, anti-human IgG, Bangs Laboratories, Inc). Adherent cell lines were cultured according to their supplier's instructions and were harvested from their cell culture flasks using Trypsin/EDTA, counted in R10 medium in a Burker chamber, and diluted in FACS buffer (PBS+0.5% BSA, 0.05% NaN₃) to a concentration of 4×10⁶ cells/mL. 50 μL (0.20×10⁶) of cell solution was added to a 96-well FACS staining plate (Falcon #351190). Cells were incubated for 20 min in 4° C. with 50 μL of the biotinylated ALG.APV-210 (2× final concentration). The antibodies were added in a serial dilution starting at 20 μg/mL titrating down in a 12 step 1/2 dilution down to 0.010 μg/mL. […] Cells were analysed for ALG.APV-210 binding using flow cytometry (FACSVerse) by gating on single cells. MFI values (secondary antibody only subtracted) from 1 out of 2 independent experiments, as well as normalized data and EC₅₀-values of pooled data from 2 experiments were determined and plotted using GraphPad Prism 7, non-linear regression log (agonist) vs. normalized response-variable slope.

human 5T4 on cells [2] = molecular target: T1, human 5T4 on cells; assay: flow cytometry, B16-hu5T4 cells, streptavidin-PE, normalized MFI of 2 pooled experiments
Method: as §1

human 5T4 on cells [3] = molecular target: T1, human 5T4 on cells; assay: flow cytometry, CHO-hu5T4 cells, streptavidin-PE, normalized MFI of 2 pooled experiments
Method: (§2) Biotinylation: In order to detect ALG.APV-210 binding to 5T4-expressing cell lines, ALG.APV-210 was first biotinylated. The quality of the biotinylated protein and the impact on binding to its targets was assessed using ELISA.
as §1, with “concentration).” for “concentration). The antibodies were added in a serial dilution starting at 20 μg/mL titrating down in a 12 step 1/2 dilution down to 0.010 μg/mL.”

human 5T4 on cells [4] = molecular target: T1, human 5T4 on cells; assay: flow cytometry, CT26-hu5T4^int cells, streptavidin-PE, normalized MFI of 2 pooled experiments
Method: as §2
as §1, with “concentration).” for “concentration). The antibodies were added in a serial dilution starting at 20 μg/mL titrating down in a 12 step 1/2 dilution down to 0.010 μg/mL.”

B1: biotinylated ALG.APV-210 (bispecific antibody)
chain: EVQLLESGGGLVQPGGSLRLSCAASGFTFSHGSMYWVRQAPGKGLEWVSSISSGSGSTYYADSVKGRFTISHDNSKNTLYLQMNSLRAEDTAVYYCARSSYYGSYYSIDYWGQGTLVTVSSGGGGSGGGGSGGGGSGGGGSDIQMTQSPSSLSASVGDRVTITCRASQSISSYLNWYQQKPGKAPKLLIYAASSLQSGVPSRFSGSGSGTDFTLTISSLQPEDFATYYCQQYYDNLPTFGQGTKLEIKEPKSSDKTHTCPPCPAPEAAGAPSVFLFPPKPKDTLMISRTPEVTCVVVDVSHEDPEVKFNWYVDGVEVHNAKTKPREEQYNSTYRVVSVLTVLHQDWLNGKEYKCAVSNKALPAPIEKTISKAKGQPREPQVYTLPPSRDELTKNQVSLTCLVKGFYPSDIAVEWESNGQPENNYKTTPPVLDSDGSFFLYSKLTVDKSRWQQGNVFSCSVMHEALHNHYTQKSLSLSPGSGGGGSGGGGSGGGGSPSEVQLLESGGGLVQPGGSLRLSCAASGFTFSSYAMSWVRQAPGKCLEWVSAISGSGGSTYYADSVKGRFTISRDNSKNTLYLQMNSLRAEDTAVYYCARYYGGYYSAWMDYWGQGTLVTVSSGGGGSGGGGSGGGGSGGGGSDIQMTQSPSSLSASVGDRVTITCRASQSISSFLNWYQQKPGKAPKLLIYAASSLQSGVPSRFSGSGSGTDFTLTISSLQPEDSATYYCQQTYGYLHTFGCGTKLEIKR
modifications: biotinylated (sites not given)
B1 showed an EC50 (human 5T4 on cells [1]) of 20 nM, an EC50 (human 5T4 on cells [2]) of 14 nM and an EC50 (human 5T4 on cells [3]) of 23 nM. It also gave an EC50 (human 5T4 on cells [4]) of 12 nM.
